Results taken from the supplement of paper PMC12042874.
± gives the uncertainty stated by the source.

assay: amyloid nucleation score (Sup35N fusion, yeast selection) (log enrichment); library NNK3; higher = more nucleation; inactive = no reads after selection
How it was run: (§1)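 The nucleation score is the log enrichment of output over input reads, calculated with DiMSum and centred on the mode score of non-aggregating sequences. Sequences with under 100 input reads were excluded. Reads came from Illumina sequencing of plasmid inserts from psi-negative yeast expressing Sup35N fused to peptides of 20 random codons, induced 24 hours with 100 μM copper sulfate and grown 7 days at 30°C without adenine and uracil.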

Substance | amyloid nucleation score
YWNLIWWAKQWDVFTGEEAL | inactive
YWQDGQ | inactive
YWRELDSIQCNLFRGQPFNL | inactive
YWYIIYAMSGLWYSSVNRVD | inactive
YYCTM | inactive
YYDYLRWLLEHIHFCTWGPY | inactive
YYKRYGGYPGNQHMSVGHRF | inactive
YYLFWVAFDMMLRLRFFVMD | inactive
YYLGSADGDPDIKWSLGYRK | inactive
YYLSTTGMWNFVSSNGALYG | -0.793 ± 1.3
YYLVDRWREFVGYRKKDCVA | inactive
YYLVSWYVTTVLKSGLLSVR | inactive
YYQGAQPLNPGAR | inactive
YYQMRYCQWDAIQVENWVRR | inactive
YYRGITMCT | inactive
YYTWVCECSYWHSVFM | inactive
YYVTQGVRVGQYLTNRERDE | -0.195 ± 0.44
YYWRMYCS | inactive
YYYLKCFTYCVLLFYYS | inactive
YYYQNRYFELRHLPEFSS | inactive

assay: amyloid nucleation score (Sup35N fusion, yeast selection) (log enrichment); library NNK2; higher = more nucleation; inactive = no reads after selection
How it was run: as §1

Substance | amyloid nucleation score
AAACAGIKFLLTFTFGFRTW | inactive
AAAHLH | -0.75 ± 0.76
AAFLAVSGFCNLPGGSTHIL | 2.38 ± 0.079
AAMPLPF | inactive
AAVNWNRFPKTVTA | -0.195 ± 0.33
AAVSSCLLFYSC | 3.5 ± 0.082
AAVTFSISYFIKTLHLENSS | 0.169 ± 0.28
AAWNRPHMERRFSYEGYYIV | -0.508 ± 0.63
ACKRGTFQWNACLSPGSCGR | 0.902 ± 0.36
ACSRANLAKKLRGMWRYSAF | -0.199 ± 1.1
ACSYANLLVTLLNSPEMPVE | 0.306 ± 0.5
ACTLCGVWSVFTIFARHKIR | 3.1 ± 0.18
ACTVWIMLRDSCWKARDRSG | 2.95 ± 0.082
ADCLKSCLAMSGF | -0.14 ± 0.8
ADKCYGYASACVFSGSLVC | 0.028 ± 0.56
ADPSDVFMVVVLGSCRAFTV | 1.63 ± 0.47
ADWQYHSVYMNTVRDKCLAQ | -0.06 ± 0.28
AEAYGTSSRRSCCRGRVV | 0.476 ± 0.5
AELSA | 0.606 ± 0.8
AESICSSVRSYGMSSFRDPE | -0.887 ± 0.64
AEVCEVRTFVPYSCLFYSST | 5.22 ± 0.06
AFAVSSLESGWRRRTSLEWL | 0.106 ± 0.55
AFCTKCASMRAILRGGGLVW | -0.109 ± 0.76
AFPNNFTRLYALEVLFGFRN | 2.1 ± 0.21
AFQITSERLGWKKVNHAVRW | 0.432 ± 0.8
AFSFDAW | 2.02 ± 0.14
AFSNSM | 0.988 ± 0.52

Substance | amyloid nucleation score
AFTSLPLCYSVYGKIKFCPC | 0.433 ± 0.62
AFWKVRLYRRPG | 1.76 ± 0.24
AFWVLTVPLGSWYCACYCYS | -0.662 ± 0.39
AGASSRKWGLYDVYVERSEA | inactive
AGDAAN | inactive
AGFTLYFGMTRNYQYSDCSP | 4.23 ± 0.066
AHCVRVLHIKSRMVVSWESR | 4.19 ± 0.099
AHHPYTNQGSTVRSRAGQWG | 0.519 ± 0.54
AHHYSESRGFRCCLTSGYFC | 0.818 ± 0.25
AHLVCRLYETMQLYLYLQWY | -1.01 ± 0.3
AHYRR | -0.226 ± 0.45
AIEKSQYLSNVDYRICSLMT | -0.336 ± 0.23
AINCKTGRKLNWIVFGRFTV | -0.315 ± 0.25
AIRGTECYWLAWVGLAVKRR | 1.12 ± 0.23
AKFTL | -0.253 ± 0.3
AKLLSAVVWDCHWV | 5.17 ± 0.055
AKYRLVVLSEFYSLTPRVLD | -0.107 ± 1
ALEMSMGKCFWGLVVVIMRW | -0.899 ± 0.36
ALGHIQLKLHCWDYGKRCAS | 0.623 ± 0.25
ALGTEFSVPKFTDGVNMAAR | -0.451 ± 0.48
ALKSCVLNDKVRRFLAWRLG | -0.183 ± 0.54
ALLVRVIRYRGSRNESRCPA | 1.42 ± 0.34
ALLYYSMCCRFMRPTSAYHV | 0.246 ± 1.1
ALMSCLLCVHWRLDSATGGR | 5.64 ± 0.09
ALMVEDRH | 0.382 ± 0.8
ALNDAGYT | -0.656 ± 0.27
ALSDCL | -0.427 ± 0.45

Substance | amyloid nucleation score
ALSFYNY | -0.282 ± 0.76
ALTFTGV | 0.286 ± 0.41
ALWGF | -0.235 ± 0.38
ALYMDVRL | 1.53 ± 0.19
ALYRSGHLMLTVNGGCWWDF | 0.45 ± 0.8
AMLDP | -0.191 ± 0.41
AMTVSWWCCLMYVDMG | 10.59 ± 0.037
AMYINWSLFVKLSRRMRYQR | inactive
ANKKIDSGNGLLDFQQNSQK | -0.249 ± 1
ANNRGVSLDPGVHCVGVLLK | 0.551 ± 0.51
ANYTCTLTSL | -0.056 ± 0.21
APLNLSFIHPTFIWLYCLLG | 4.27 ± 0.05
ARIAETSRYKRSENSLSLV | -0.88 ± 0.76
ARNIGDCRDVSCDWCFSYAF | 5.13 ± 0.064
ARSPCCLYQMHIYFAKAFAD | -0.599 ± 0.33
ASAGCTTGTLGGPHHRHMIV | 0.523 ± 0.26
ASDVKGSANDVVGFWVLPDQ | 5.907 ± 0.049
ASGDGLNFWPFRSPTDAQRA | 0.775 ± 0.5
ASGVNFGT | -0.215 ± 0.45
ASSYMRWVEARTRYLACAEN | 4.665 ± 0.046
ASVENGSALIIRESDMSGGN | 0.556 ± 0.43
ASVIQGVRLLFFRNLARSTS | 0.011 ± 0.79
ASVKSILVYGGCTKWFFPHF | 4.11 ± 0.062
ASWKFMFNCSKISRRPNTIT | 0.148 ± 1
ASYRKWNTCPIMYEVSCRYY | inactive
ATCSPSVSRVLGLCSWECFR | -0.382 ± 0.76
ATIWCCRVKGQVGSFNL | 0.868 ± 0.14

Substance | amyloid nucleation score
ATNNPVMNFAGLAKECFAYM | -0.106 ± 0.79
ATVFF | 0.768 ± 0.28
ATVSDYKVHGSDLFSFTVND | 8.299 ± 0.058
ATYINLVINSKSARLFLICG | 4.732 ± 0.036
AVAVACLDH | 0.713 ± 0.58
AVCITFLSSCAIFFDSPVRV | 6.409 ± 0.047
AVCWYNVQVRSSRNLYGQPK | 0.221 ± 0.5
AVFNGFKNNSLV | -0.146 ± 1
AVGNNN | -1.11 ± 0.74
AVIDIIKRTSCTCDESCCIR | 0.415 ± 0.31
AVIMRFVYYDAYWGLWMVKE | 0.228 ± 1
AVLSITMKGVVWKGLSNLCC | inactive
AVRYSLFF | 5.09 ± 0.054
AVSFRFIGVYRGM | 3.95 ± 0.12
AWACYSECQDIRGNYSEVVL | -0.671 ± 0.48
AWDRDVNDENLVSIYMCRKL | -0.233 ± 0.32
AWGHIHAVPMYNALLYNSHD | 0.695 ± 0.66
AWLLTLPKLYSLEC | -0.434 ± 0.6
AWSVIEGFQHREAFVTYRGQ | 3.7 ± 0.063
AYCCINLHYNLKVS | 0.665 ± 0.65
AYDFGVA | -0.263 ± 1.1
AYFKYCSSLRGSIRDNRADW | 0.113 ± 0.63
AYHDYLSRGGTHVVVCYYLS | inactive
AYRSDCIRHGGPFAGYNICI | 0.044 ± 1.1
